From patent publication US6461841B2, “L-amino acid oxidase from Rhodococcus species” (Degussa AG, priority 2000, dated 2002)
Values joined by “and” are separate entries in the source; they are usually repeats but may differ in a detail not shown here. Equal values may be shown once.

Columns and labels:
Test in all cases: purified protein, by the assay type
Settings in all cases: other: 0.2 M TEA-HCl buffer, pH 7.6, 30° C.
[1] = substrate: N[C@@H](CO)C(=O)O; format: biochemical
Experimental: (§1) To determine the kinetic constants, the reaction speed of oxidation was studied at different concentrations of amino acid and for different L-amino acids, under the following conditions (tests in microtiter plates):
(§2) 0.2 M TEA-HCl buffer, pH 7.6; 0.2 mg/mL o-dianisidine; 25 U/mL POX; L-amino acid oxidase in limiting amounts; varying concentrations of the different L-amino acids. Activity measurement was conducted by photometry at 450 nm and 30° C.
(§3) The kinetic constants Vmax.

[2] = substrate: NC(=O)C[C@H](N)C(=O)O; format: biochemical
Experimental: as §1, §2, §3

[3] = substrate: N=C(N)NCCC[C@H](N)C(=O)O; format: biochemical
Experimental: as §1, §2, §3

[4] = substrate: C[C@H](N)C(=O)O; format: biochemical
Experimental: as §1, §2, §3

[5] = substrate: NC(=O)NCCC[C@H](N)C(=O)O; format: biochemical
Experimental: as §1, §2, §3

[6] = substrate: N[C@@H](Cc1ccccc1)C(=O)O; format: biochemical
Experimental: as §1, §2, §3

[7] = substrate: CSCC[C@H](N)C(=O)O; format: biochemical
Experimental: as §1, §2, §3

[8] = substrate: NCCCC[C@H](N)C(=O)O; format: biochemical
Experimental: as §1, §2, §3

[9] = substrate: CC[C@H](C)[C@H](N)C(=O)O
[10] = substrate: NCCC[C@H](N)C(=O)O
[11] = substrate: CC(C)[C@H](N)C(=O)O
[12] = substrate: NC(=O)CC[C@H](N)C(=O)O
[13] = substrate: CC(C)C[C@H](N)C(=O)O

B1: L-amino acid oxidase from Rhodococcus opacus (Rhodococcus opacus) (protein)
chain: AGDLIGKVKGSHSVVVLGGGPAGLCSAFELQKAGYKVTVLEARTRPGGRVWTARGGSEETDLSGETQKCTFSEGHFYNVGATRIPQSHITLDYCRELGVEIQGFGNQNANTFVNYQSDTSLSGQSVTYRAAKADTFGYMSELLKKATDQGALDQVLSREDKDALSEFLSDFGDLSDDGRYLGSSRRGYDSEPGAGLNFGTEKKPFAMQEVIRSGIGRNFSFDFGYDQAMMMFTPVGGMDRIYYAFQDRIGTDNIVFGAEVTSMKNVSEGVTVEYTAGGSKKSITADYAICTIPPHLVGRLQNNLPGDVLTALKAAKPSSSGKLGIEYSRRWWETEDRIYGGASNTDKDISQIMFPYDHYNSDRGVVVAYYSSGKRQEAFESLTHRQRLAKAIAEGSEIHGEKYTRDISSSFSGSWRRTKYSESAWANWAGSGGSHGGAATPEYEKLLEPVDKIYFAGDHLSNAIAWQHGALTSARDVVTHIHERVAQEA
notes: made in house; host or cells: Rhodococcus opacus DSM 43250, the natural producer; purified from crude cell extract, not recombinant
B1 showed a Km [1] of 1360 µM, a Vmax [1] of 4.36 µmol/min/mg and a Km [2] of 28 µM. For the same protein, the Vmax [2] was 5.37 µmol/min/mg, the Km [3] was 70 µM and the Vmax [3] was 8.12 µmol/min/mg. The Km [4] was 274 µM, the Vmax [4] was 4.27 µmol/min/mg and the Km [5] was 26 µM. The Vmax [5] was 5.47 µmol/min/mg, the Km [6] was 19 µM and the Vmax [6] was 5.64 µmol/min/mg. For the same protein, the Km [7] was 39 µM, the Km [8] was 15 µM and the Vmax [8] was 3.56 µmol/min/mg. For the same protein, the Km [9] was 5110 µM, the Vmax [9] was 2.84 µmol/min/mg and the Km [10] was 34 µM. For the same protein, the Vmax [10] was 7.48 µmol/min/mg, the Km [11] was 3730 µM and the Vmax [11] was 1.93 µmol/min/mg. The Vmax [12] was 5.06 µmol/min/mg and 2.32 µmol/min/mg, the Km [13] was 28 µM and the Vmax [13] was 6.45 µmol/min/mg.
